Laboratory results taken from the supplement of paper PMC9112550, “Optimization of the antimicrobial peptide Bac7 by deep mutational scanning” (BMC Biology, 2022).

Test system: Escherichia coli TOP10
Assay: shrunken log2 fold change of peptide-encoding DNA abundance (4.5 h post-induction vs induction); higher = less antimicrobial activity (less host growth inhibition)
Details: time post-induction: 4.5 h; library: site-saturation at positions 5, 18, 19, 20
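Also: peptides expressed intracellularly from a pBAD plasmid library in pooled LB shake-flask culture, induced with 0.3% L-arabinose, DNA abundance read by NGS, three biological replicates, DESeq2 with apeglm shrinkage.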

Row | Sequence | shrunken log2 fold change
1 | RRIRRRPPRLPRPRPRPNLQPRP | -0.07
2 | RRIRVRPPRLPRPRPRPDWTPRP | 0.00219
3 | RRIRMRPPRLPRPRPRPRPQPRP | 1.13
4 | RRIRMRPPRLPRPRPRPDHVPRP | -0.0107
5 | RRIRVRPPRLPRPRPRPDNSPRP | -0.202
6 | RRIRSRPPRLPRPRPRPTDCPRP | -0.0926
7 | RRIRNRPPRLPRPRPRPTELPRP | -0.0232
8 | RRIRIRPPRLPRPRPRPECDPRP | 0.0126
9 | RRIRWRPPRLPRPRPRPWICPRP | -0.137
10 | RRIRTRPPRLPRPRPRPFRNPRP | 0.0337
11 | RRIRTRPPRLPRPRPRPVYKPRP | -0.188
12 | RRIRMRPPRLPRPRPRPVEQPRP | 0.0366
13 | RRIRQRPPRLPRPRPRPWIAPRP | -0.161
14 | RRIRNRPPRLPRPRPRPKRNPRP | -0.189
15 | RRIRPRPPRLPRPRPRPMEAPRP | 0.177
16 | RRIRIRPPRLPRPRPRPWFQPRP | -0.0137
17 | RRIRERPPRLPRPRPRPVGTPRP | 0.0306
18 | RRIRWRPPRLPRPRPRPCRVPRP | 0.103
19 | RRIRPRPPRLPRPRPRPNLRPRP | 0.197
20 | RRIRMRPPRLPRPRPRPPRTPRP | 1.46
21 | RRIRPRPPRLPRPRPRPEEYPRP | 0.00398
22 | RRIRFRPPRLPRPRPRPHRTPRP | -0.18
23 | RRIRKRPPRLPRPRPRPNNTPRP | -0.243
24 | RRIRRRPPRLPRPRPRPIAHPRP | -0.0355
25 | RRIRGRPPRLPRPRPRPDNGPRP | -0.0263

Row | Sequence | shrunken log2 fold change
26 | RRIRVRPPRLPRPRPRPVCDPRP | 0.0894
27 | RRIRTRPPRLPRPRPRPCFSPRP | -0.3
28 | RRIRMRPPRLPRPRPRPPMEPRP | 0.696
29 | RRIRYRPPRLPRPRPRPDIVPRP | -0.295
30 | RRIRKRPPRLPRPRPRPVIHPRP | -0.0677
31 | RRIRTRPPRLPRPRPRPWKGPRP | 0.143
32 | RRIRTRPPRLPRPRPRPMYDPRP | -0.161
33 | RRIRYRPPRLPRPRPRPGTYPRP | -0.0385
34 | RRIRHRPPRLPRPRPRPKNCPRP | 0.00397
35 | RRIRDRPPRLPRPRPRPHHIPRP | -0.361
36 | RRIRSRPPRLPRPRPRPSFLPRP | 0.182
37 | RRIRWRPPRLPRPRPRPSTQPRP | 0.0274
38 | RRIRCRPPRLPRPRPRPYMYPRP | -0.912
39 | RRIRVRPPRLPRPRPRPVDQPRP | -0.0903
40 | RRIRERPPRLPRPRPRPAGHPRP | 0.0849
41 | RRIRERPPRLPRPRPRPIRCPRP | 0.0648
42 | RRIRLRPPRLPRPRPRPIKAPRP | -0.0378
43 | RRIRHRPPRLPRPRPRPHSYPRP | -0.191
44 | RRIRHRPPRLPRPRPRPVTAPRP | 0.0123
45 | RRIRVRPPRLPRPRPRPPTGPRP | 0.245
46 | RRIRWRPPRLPRPRPRPQRKPRP | 0.46
47 | RRIRIRPPRLPRPRPRPYIMPRP | -1.15
48 | RRIRLRPPRLPRPRPRPQKVPRP | 0.0989
49 | RRIRSRPPRLPRPRPRPCPLPRP | -0.823
50 | RRIRARPPRLPRPRPRPAAFPRP | 0.787

Row | Sequence | shrunken log2 fold change
51 | RRIRERPPRLPRPRPRPSELPRP | 0.0285
52 | RRIRRRPPRLPRPRPRPKTLPRP | 0.146
53 | RRIRLRPPRLPRPRPRPLLYPRP | -0.326
54 | RRIRVRPPRLPRPRPRPDHRPRP | -0.272
55 | RRIRYRPPRLPRPRPRPYLLPRP | -1.28
56 | RRIRQRPPRLPRPRPRPELPPRP | -0.0769
57 | RRIRWRPPRLPRPRPRPTFEPRP | 0.13
58 | RRIRWRPPRLPRPRPRPHWYPRP | 2.17
59 | RRIRKRPPRLPRPRPRPWVKPRP | -0.148
60 | RRIRRRPPRLPRPRPRPCYNPRP | -0.41
61 | RRIRRRPPRLPRPRPRPWSFPRP | 0.0517
62 | RRIRQRPPRLPRPRPRPQVWPRP | -0.0346
63 | RRIRRRPPRLPRPRPRPTCFPRP | 0.469
64 | RRIRYRPPRLPRPRPRPRKTPRP | -0.00513
65 | RRIRRRPPRLPRPRPRPWWVPRP | 0.0496
66 | RRIRYRPPRLPRPRPRPMRPPRP | 0.512
67 | RRIRLRPPRLPRPRPRPNCFPRP | -0.0891
68 | RRIRMRPPRLPRPRPRPNGGPRP | 0.112
69 | RRIRHRPPRLPRPRPRPPPSPRP | 0.87
70 | RRIRARPPRLPRPRPRPFCSPRP | -0.0878
71 | RRIRPRPPRLPRPRPRPIHFPRP | -0.241
72 | RRIRDRPPRLPRPRPRPHVIPRP | -0.0856
73 | RRIRIRPPRLPRPRPRPVKGPRP | -0.0688
74 | RRIRVRPPRLPRPRPRPFKCPRP | -0.0453
75 | RRIRTRPPRLPRPRPRPYSKPRP | -0.565

Row | Sequence | shrunken log2 fold change
76 | RRIRDRPPRLPRPRPRPCYRPRP | -0.417
77 | RRIRWRPPRLPRPRPRPETNPRP | 0.187
78 | RRIRRRPPRLPRPRPRPVGHPRP | 0.0496
79 | RRIRIRPPRLPRPRPRPTKHPRP | -0.528
80 | RRIRERPPRLPRPRPRPFYQPRP | -0.0388
81 | RRIRDRPPRLPRPRPRPENVPRP | 0.218
82 | RRIRWRPPRLPRPRPRPSHCPRP | -0.689
83 | RRIRHRPPRLPRPRPRPEPFPRP | 0.0638
84 | RRIRDRPPRLPRPRPRPCHHPRP | -0.0426
85 | RRIRVRPPRLPRPRPRPQQAPRP | -0.0616
86 | RRIRARPPRLPRPRPRPTKTPRP | 0.247
87 | RRIRKRPPRLPRPRPRPCVHPRP | -0.266
88 | RRIRPRPPRLPRPRPRPQFIPRP | -0.653
89 | RRIRIRPPRLPRPRPRPQVWPRP | -0.0966
90 | RRIRQRPPRLPRPRPRPVFKPRP | -0.0447
91 | RRIRQRPPRLPRPRPRPLWLPRP | 0.0736
92 | RRIRKRPPRLPRPRPRPRLMPRP | 0.989
93 | RRIRQRPPRLPRPRPRPKYYPRP | -0.746
94 | RRIRTRPPRLPRPRPRPVEDPRP | 0.0389
95 | RRIRSRPPRLPRPRPRPIYIPRP | -0.776
96 | RRIRLRPPRLPRPRPRPCGNPRP | 0.0862
97 | RRIRRRPPRLPRPRPRPSTNPRP | -0.0966
98 | RRIRDRPPRLPRPRPRPELVPRP | 0.00724
99 | RRIRQRPPRLPRPRPRPRDTPRP | 0.0606
100 | RRIRIRPPRLPRPRPRPKTWPRP | -0.258

Row | Sequence | shrunken log2 fold change
101 | RRIRERPPRLPRPRPRPGQQPRP | -0.0809
102 | RRIRRRPPRLPRPRPRPWQWPRP | 0.549
103 | RRIRRRPPRLPRPRPRPCDYPRP | -0.489
104 | RRIRYRPPRLPRPRPRPCIEPRP | -0.0017
105 | RRIRARPPRLPRPRPRPQCMPRP | 0.153
106 | RRIRYRPPRLPRPRPRPIMSPRP | -0.114
107 | RRIRVRPPRLPRPRPRPCHFPRP | -0.0858
108 | RRIRWRPPRLPRPRPRPLAGPRP | 0.493
109 | RRIRERPPRLPRPRPRPWSKPRP | -0.466
110 | RRIRRRPPRLPRPRPRPTSFPRP | 0.264
111 | RRIRGRPPRLPRPRPRPHTGPRP | -0.0945
112 | RRIRLRPPRLPRPRPRPAEAPRP | 0.0653
113 | RRIRNRPPRLPRPRPRPIQTPRP | -0.0112
114 | RRIRCRPPRLPRPRPRPCKAPRP | -0.0437
115 | RRIRLRPPRLPRPRPRPRNNPRP | 0.019
116 | RRIRGRPPRLPRPRPRPDFPPRP | 0.414
117 | RRIRQRPPRLPRPRPRPKPDPRP | 0.313
118 | RRIRSRPPRLPRPRPRPYTTPRP | -0.0205
119 | RRIRCRPPRLPRPRPRPATNPRP | 0.213
120 | RRIRIRPPRLPRPRPRPPWDPRP | 0.0808
121 | RRIRDRPPRLPRPRPRPSCGPRP | 0.301
122 | RRIRTRPPRLPRPRPRPPYFPRP | 0.202
123 | RRIRVRPPRLPRPRPRPCTLPRP | -0.196
124 | RRIRLRPPRLPRPRPRPRSHPRP | 0.195
125 | RRIRMRPPRLPRPRPRPCLIPRP | -0.0342

Row | Sequence | shrunken log2 fold change
126 | RRIRARPPRLPRPRPRPCKFPRP | -0.138
127 | RRIRPRPPRLPRPRPRPEKFPRP | -0.181
128 | RRIRWRPPRLPRPRPRPKRTPRP | 0.668
129 | RRIRLRPPRLPRPRPRPNWVPRP | -0.0131
130 | RRIRRRPPRLPRPRPRPYDSPRP | -0.545
131 | RRIRHRPPRLPRPRPRPAKMPRP | 0.0344
132 | RRIRSRPPRLPRPRPRPLYHPRP | -0.599
133 | RRIRGRPPRLPRPRPRPFVHPRP | 0.111
134 | RRIRWRPPRLPRPRPRPACCPRP | 0.454
135 | RRIRTRPPRLPRPRPRPQVVPRP | -0.0349
136 | RRIRGRPPRLPRPRPRPVRTPRP | 1.3
137 | RRIRRRPPRLPRPRPRPINGPRP | -0.0719
138 | RRIRFRPPRLPRPRPRPFIAPRP | -0.489
139 | RRIRRRPPRLPRPRPRPRGQPRP | 1.11
140 | RRIRARPPRLPRPRPRPYNYPRP | 1.34
141 | RRIRKRPPRLPRPRPRPRNGPRP | 0.157
142 | RRIRYRPPRLPRPRPRPLLHPRP | -0.541
143 | RRIRWRPPRLPRPRPRPIYHPRP | -0.305
144 | RRIRCRPPRLPRPRPRPNSNPRP | -0.698
145 | RRIRRRPPRLPRPRPRPDDLPRP | -0.128
146 | RRIRCRPPRLPRPRPRPPVQPRP | 0.652
147 | RRIRLRPPRLPRPRPRPDDMPRP | 0.0411
148 | RRIRGRPPRLPRPRPRPDKGPRP | 0.00725
149 | RRIRDRPPRLPRPRPRPFEDPRP | 0.265
150 | RRIRRRPPRLPRPRPRPSDSPRP | 0.141
